Values joined by “and” are separate entries in the source; they are usually repeats but may differ in a detail not shown here. Equal values may be shown once.

The target in test [1] is TNF-α cell surface receptors on human HeLa and FS11 fibroblast cells (human). Briefly: 125I-TNF-α binding to cells; control without urine concentrate, condition B (37° C. 90′ prior to application of TNF-α).
Test [2] has the same target. Kind of test: 125I-TNF-α binding to cells; control without urine concentrate, condition C (4° C. together with TNF-α).
Test [3] has the same target. Briefly: 125I-TNF-α binding to cells; control without urine concentrate, condition A (4° C. 90′ prior to application of TNF-α).
Test [4] has the same target. Briefly: 125I-TNF-α binding to cells; urine concentrate holding TNF Inhibitory Protein applied at 37° C. 90′ prior to TNF-α and removed (condition B).

Chain of TNF-α cell surface receptors on human HeLa and FS11 fibroblast cells (human) (P19438 30-455): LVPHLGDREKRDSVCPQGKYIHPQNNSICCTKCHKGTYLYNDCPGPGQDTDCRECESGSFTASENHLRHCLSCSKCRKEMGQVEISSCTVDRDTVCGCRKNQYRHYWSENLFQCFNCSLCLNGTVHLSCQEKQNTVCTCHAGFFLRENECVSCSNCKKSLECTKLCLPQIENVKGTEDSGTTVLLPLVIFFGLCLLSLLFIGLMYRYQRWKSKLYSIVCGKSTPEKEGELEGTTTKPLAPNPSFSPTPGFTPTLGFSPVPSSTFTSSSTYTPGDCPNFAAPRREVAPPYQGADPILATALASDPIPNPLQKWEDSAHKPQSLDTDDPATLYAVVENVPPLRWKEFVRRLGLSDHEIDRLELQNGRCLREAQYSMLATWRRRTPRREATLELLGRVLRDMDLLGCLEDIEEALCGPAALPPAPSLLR

As for “Tumor Necrosis Factor-α (TNF-α) (from UniProt P01375 77-233) (ligand)”, the CPM in test [1] was 5560 CPM; in test [2], 4630 CPM; in test [3], 5290 CPM; in test [4], 4730 CPM and 4460 CPM.

These data come from patent publication US20050245731A1.
